This passage reports protein production results from a protein production outcome set (Wang et al. 2014).

The data set can be described thus: label from the status in PepcDB records.
Consider “MAEFTHLVNERRSASNFLSGHPITKEDLNEMFELVALAPSAFNLQHTKYVTVLDQDVKEKLKQAANGQYKVVSSSAVLLVLGDKQAYQQAADIYEGLKVLGILNKQEYDHMVQDTVSFYENRGEQFKRDEAIRNASLSAMMFMLSAAAAGWDTCPMIGFDAEAVKRILNIDDQFEVVMMITIGKEKTESRRPRGYRKPVNEFVEYM”, for which the protein production entry is reported as “not failed”.

For the sequence “MKKPSSTPAPRLASLDILRGFDLFLLVFFQPVLWTLAHQLNLPWLNSILFQFDHEVWEGFRFWDLVMPLFLFMTGASMPFSFSKFKDNPDKGPVYRKIIKRFILLFIFGMIVQGNLLGLDPKHLYLYSNTLQAIATGYLIAAIIQLHCNFRWQLIVTALLLLIYWIPMTFLGDFTPEGNFAEKVDRLVLGHFRDGVFWNEDGSWSFSAHYNYTWIWSSLTFGATVMLGAFAGKIMKAGKDNRRKVVQTLLIIGISLIAFSLIWSLQMPIIKRLWTSSMTLFSGGLCFLLMGAFYYRIDYKGHSRGLNWLKIYGMNSITAYILGEVINFRCIAASVSYGLEQYLGGYYQVWLSFANYLIVFLILRIMYRQKIFLKI”, the protein production result is recorded as “failed”.

“REIADNTYIVLGTMTLNDFNEYFETDLESDNVDTIAGFYLTGVGTIPSQEEKEHFEVESNGKHLELINDKVKDGRVTKLKILVSEVEEKEDEKD”: the protein production result is “not failed”. The result for “MAQIPFDLKHADFARLAEVGLRLPGLREVKTLTQTSWIEAPTTIIGTVVSGAELQVGAFCSLSGGTLNNVHIGRYSSIAAGTIIGVHEHPTSWLTTSRTSYWPQVYGWDELIAPDRAAEIRAGKRPFTRSCPITEIGHDVWIGQGCFIKSGVRIGHGSVIGARATVTKDVPPYSIVLGTPGRVVRTRVPEPLIERLLAVEWWRYSIYDLFAAPFDDVARALDVIEDRIAEGAIKPYEAPLVTPADLAEPLGLAARLAARFPRPLARAS” reads “failed”; that for “SQSLYQALWNSADVLRSKMDANDYKSYLLGMVFYKYLSDKMLFFVAETMEEETESLDEALAVYRKYYEDEETHEDLLAVITDEMSYAIHPDLTFTALVERVNDGSFQLEDLAQGFRDIEQSDELYENLFEDIDLYSKKLGATPQKQNQTVAAVMKELAVLDVAGHAGDMLGDAYEYLIGQFATDSGKKAGEFYTPQPVAKLMTQIAFLGREDKQGFTLYDATMGSGSLLLNAKRYSRQPQTVVYFGQELNTSTYNLARMNMILHGVPIENQFLHNADTLDEDWPTQEPTNFDGVLMNPPYSAKWSASSGFMDDPRFSPFGKLAPKSKADFAFLLHGYYHLKQDNGVMAIVLPHGVLFRGNAEGTIRKALLEEGAIDTVIGLPANIFFNTSIPTTVIILKKNRTNRDVYFIDASKEFDKGKNQNIMTDAHIEKILNAYKSREDIDKFAHLASFEEIVENDYNLNIPRYVDTFEEEEVEPLTEIVAKINQTNATIESQTASLLDMLGQLHGTTPEADEELKAFVKAFKG”, “failed”. Take “MGFHLRGAIDIPEWLDNVSIISRDGNKELVSILKSQLEGYKIDVNSDPSLAKYWLIINSSSLQQQIVSIGASTNPRQYQLILTIEFMLQTPKGQIIKTPRKVNVSRQLTVNNDRILGSNEEQALLVSEMRRDAAIQIINRLNRPLEHHHHHH”: the protein production entry is on record as “not failed”.

On to “MELKDYYAIMGVKPTDDLKTIKTAYRRLARKYHPDVSKEPDAEARFKEVAEAWEVLSDEQRRAEYDQMWQHRNDPQFNRQFHHGDGQSFNAEDFDDIFSSIFGQHARQSRQRPATRGHDIEIEVAVFLEETLTEHKRTISYNLPVYNAFGMIEQEIPKTLNVKIPAGVGNGQRIRLKGQGTPGENGGPNGDLWLVIHIAPHPLFDIVGQDLEIVVPVSPWEAALGAKVTVPTLKESILLTIPPGSQAGQRLRVKGKGLVSKKQTGDLYAVLKIVMPPKPDENTAALWQQLADAQSSFDPRKDWGKA”, for which the protein production entry was “failed”. The same measure for “MSEQKAPIIVKRIKKTSGGHHGGAWKIAYADFVTAMMAFFLLMWLLGSTTRGDLEGIAEYFKTPLKVAMQGGTGSGDSSSVIKGGGADLTRKNGQIKKGEVDADRKSYNLKAAQAELERLETAKLKQLKQRLEAAIDRNPTLKQFKRQLLIDITSEGLRIQIVDEQNRPMFNLASAELQPYTKVILHEIAQVLNDVENRISLSGHTDARPYANGERGYSNWELSADRANASRRELIVGGMSEAKMLRVVGLASSVPFTQAKPFDPVNRRISIIVLNKRTEEAITKEASGAEVTDQNGASDALDRRAPPSDVAAPAAAAK”: “failed”. For “MLTQGNFDVLPVGDGAKRAQTVQPTVKLRIETIGVPRISDENGRNLTPVGSRNRVIPVILALSPRMTVGRRWLEALLWSDRGPDQASGSLRQALSSIRRQLGDARDILCANRTDIWMTSKDVTIDLLDDQQGVLQRLRAGRDFLEGIDILSEGFEDWLRQERASLLQMAEVELPARALPARLHATEAERPLSWTQEPPRFFLDQDLGLESDKLERFLTDAISTQLTQTVKSHFRADVRALDGTLTPVIVTPGARFAIRVTRINKAFAVLARMTEEPAGRLFWSRQLFIDSRETESMMDTAAALATEASEAMGARSFVASPAQQANVLAAEALADVFSFDPDRLRKAIRTLGRANDIDPHAPRPALKALALAFLALETRNTDRDHLIGEVTDLIRQSRALDSRNALALSFLADVQDLVFEDPQTALSYAKSALRSNPGIGYAYASLGALELRRGAAEAALIAASRAQRQLANSSLEVFSLMRLCVANLTAKDFDAAEQAAQRAAELAPTSQPPLRHLYALRLRRKDYAAARQTLRALRRLDPLFSMQYLRENPEFPAATIRTMQLHKLMDVELG”, the protein production result was “failed”. Regarding “MGNEEEKMNADIFSYEGEGIQCVYDNKNWVMCIKNWKPNNDIENIRYLEVHHATDEQFVLLKGKAVLLAAVKADGACRIDVIPMEPYKVYNIPQGIWFNTITQKDTKLVYVQDAATTAENSEYCDMTQEELNEVKEKASACLD”, the protein production entry is recorded as “failed”. For the sequence “MSTVPISGRSQIMLVQDSEILSSSALQYKQFLSKVKISKNATSTAQVRRVGQKVAAATMLYLKQNGLGDMASQMKWEFNVVEDKAVNAFCMPGGKIVVYTGLLKLVGSDAELATVISHEVSHAVARHSNERISQEYLRQMGGNILGAAVSNKSAALQTVIGQAYGIGSQVLITLPYNRKQEYEADKIGLVFMAMAGYNPNAAITFWQKMAAQGNGRVEFLSTHPSDANRIAAIRQYMPEAMKHYKSKLEHHHHHH”, the protein production result is listed as “not failed”. With “MKIGIIGVGKMASAIIKGLKQTPHELIISGSSLERSKEIAEQLALPYAMSHQDLIDQVDLVILGIKPQLFETVLKPLHFKQPIISMAAGISLQRLATFVGQDLPLLRIMPNMNAQILQSSTALTGNALVSQELQARVRDLTDSFGSTFDISEKDFDTFTALAGSSPAYIYLFIEALAKAGVKNGIPKAKALEIVTQTVLASASNLKTSSQSPHDFIDAICSPGGTTIAGLMELERLGLTATVSSAIDKTIDKAKSL”, the protein production entry is “not failed”.

Turning to “MLTKLGIKGRELLLTILPASLMAAMLGGYFTWMQLSELQSQLLLRGEMIAQDLAPLSASALGRKDKVLLSRIATQTLEQPDVRAVSFLDVDRSPLAHAGPTMISPTPIGNSSQLLNSTGTDATRYLLPVFGNQRHLTSPIIPAEADTLMGWVDVEISHNGTLLRGYRSLFASLLLIFTGLAITAVVAVRLSRTINGPMSQIKQAVSQLKDGNLETRLPPLGSRELDELASGINRMAATLQNAQEELQMSIDQATEDVRQNLETIEIQNIELDLARKEALEASRIKSEFLANMSHEIRTPLNGILGFTHLLQKSELTPRQFDYLATIEKSADNLLSIINEILDFSKIEAGKLVLDNIPFNLRDLLQDTLTILAPAAHAKHLELVSLVYRDTPLALSGDPLRLRQILTNLVSNAIKFTREGTIVARAMLEDETEEHAQLRISVQDTGIGLSSQDVRALFQAFSQADNSLSRQPGGTGLGLVISKRLIEQMGGEIGVDSTPGEGSEFWISLKLPKAREDKEESLNLPLEGLRAAVLEHHDLARQALEHQLEDCGLHTVVFTNLENLLNGVTAAHETPAAIDLAVLGVTTLEISPERLRQHIWDLENLNCKVMVLCPTTEYALFQLAVHDVYTQLQAKPACTRKLQKALSELIAPRAIRADIAPPLSSRAPRVLCVDDNPANLLLVQTLLEDMGAEVMAVEGGYAAVNAVQQEAFDLVLMDVQMPGMDGRQATEAIRAWEAERGQSSLPIVALTAHAMANEKRSLLQSGMDDYLTKPISERQLAQVVLKWSGLALRNPAPERQNESLEAHVGPLVLDPEEGLRLAAGKADLAADMLAMLLASLDADREAIRVARASQDVQALIERIHRLHGATRYCGVPQLRTACQRAETLLKQDAPHTGDALDDLDKAIVRLETEARVTA”, the protein production entry was “failed”.
